Among the data in patent US12723105 are IC50 and EC50 values, retold here.

Assay [1] deals with CD47 (UniProt Q08722). The assay is described as follows: competitive ELISA vs SIRPα. A general note: In an ELISA, binding on a coated surface is turned into a signal by an enzyme label.
For assay [2], the target named is CD47 (UniProt Q08722). The assay is described as follows: flow cytometry, CD47-overexpressing cells. On the technique in general: Flow cytometry measures light scatter and fluorescence of single cells or particles in a stream.

By IC50 is commonly meant the midpoint of a concentration-inhibition curve. Higher therefore signals weaker potency. By EC50 is commonly meant the concentration needed to bring the measured effect to its halfway point. Lower therefore signals higher potency in that assay.

For B6H12, the IC50 in assay [1] stood at 0.499 nM. The same substance returned an EC50 in assay [2] of 5.59 nM.
